FireProtDB (doi:10.1110/ps.8.7.1500)

Conditions: Aspergillus oryzae (strain ATCC 42149 / RIB 40), Thermal, DSC, whole UniProt chain shown

B1: Guanyl-specific ribonuclease T1 wild type, P00651 (protein)
chain: MMYSKLLTLTTLLLPTALALPSLVERACDYTCGSNCYSSSDVSTAQAAGYQLHEDGETVGSNSYPHKYNNYEGFDFSVSSPYYEWPILSSGDVYSGGSPGADRVVFNENNQLAGVITHTGASGNNFVECT
For B1, the unfolding free energy (pH 2.8, 17.1 °C, glycine 10 mM) was 5.6 kcal/mol, the unfolding free energy (pH 2.8, 21.1 °C, glycine 10 mM) was 4.9 kcal/mol and the unfolding free energy (pH 2.8, 24.9 °C, glycine 10 mM) was 4.3 kcal/mol. The unfolding free energy (pH 2.8, 25 °C, glycine 10 mM) was 4.3 kcal/mol, the unfolding free energy (pH 2.8, 27.8 °C, glycine 10 mM) was 3.7 kcal/mol and the unfolding free energy (pH 3, 25 °C, glycine 10 mM) was 5.2 kcal/mol. The Tm (pH 3, glycine 10 mM) was 49.1 °C, the “unfolding enthalpy (calorimetric)” value (pH 3, glycine 10 mM) was 82.7 kcal/mol and the unfolding free energy (pH 3.6, 25 °C, acetate 10 mM) was 6.7 kcal/mol. The unfolding free energy (pH 4, 25 °C, acetate 10 mM) was 7.2 kcal/mol, the unfolding free energy (pH 5, 25 °C, acetate 10 mM) was 8.1 kcal/mol and the Tm (pH 5, acetate 10 mM) was 58.6 °C. For the same protein, the “unfolding enthalpy (calorimetric)” value (pH 5, acetate 10 mM) was 99.1 kcal/mol, the unfolding free energy (pH 6, 25 °C, MOPS or HEPES 10 mM) was 8.5 kcal/mol and the Tm (pH 6, MOPS or HEPES 10 mM) was 60.3 °C. For the same protein, the “unfolding enthalpy (calorimetric)” value (pH 6, MOPS or HEPES 10 mM) was 101 kcal/mol, the Tm (pH 7, MOPS or HEPES 10 mM) was 61.8 °C and the “unfolding enthalpy (calorimetric)” value (pH 7, MOPS or HEPES 10 mM) was 102 kcal/mol.
